Test results taken from patent US10172951B2, “Dendrimer based nanodevices for therapeutic and imaging purposes” (priority 2009, dated 2019).
Where “and” joins values, the source holds several entries; their conditions need not be identical. Identical values can stand only once. Numbered stars: 1 amine (or outer) side, 2 acyl side, 3 side chain; on linkers, the order of the positions; unused ones are H or OH. Square brackets hold non-standard residues; d marks the D form. Peptide text beside a SMILES is read from it. γGlu = O=C(O)[C@H](CCC(=O)[*:2])N[*:1]

Columns and labels:
[1] = In vitro NAC release from 6-Arm and 8-Arm PEG-S-S-NAC conjugates in PBS with GSH; format: physicochemical; conditions: intracellular GSH concentration (2 and 10 mM), within 2 hours
Experimental: The in vitro release of NAC from the 6-Arm-PEG-S—S-NAC and 8-Arm-PEG-S—S-NAC conjugates was performed in PBS (pH=7.4) at 37° C. Appropriate amounts of PEG-S—S-NAC conjugate were dissolved in release media (PBS buffered) to form a solution of 1 mg/ml into eppendorf tube and GSH was added to the conjugates to form 10 mM, 2 mM, or 2 μM concentrations and to initiate the release of NAC. All samples were run as triplicates for statistical analysis. As control samples, conjugates were analyzed in PBS buffered media in the absence of reducing agents. The solutions were kept at 37° C. and stirred continuously. At predetermined time intervals, 30 μL of samples were withdrawn and immediately analyzed release of NAC and GS-NAC with RP-HPLC and the concentrations of analytes were determined by using appropriate calibrations prepared under same conditions.

BV-2 cells = assay: TNF-α release assay (ELISA), PEG-NAC conjugates; format: cell-based, mouse; conditions: 5 mM
Experimental: (A) BV-2 cells (passage 22) were co-treated with 100 ng/mL of LPS and the indicated concentration of NAC, 6-Arm-PEG-S—S-NAC conjugate (1) and its correspond 6-Arm-PEG-SH for 72 hours (B) BV-2 cells were co-treated with 100 ng/mL of LPS and the indicated concentration of NAC, 8-Arm-PEG-S—S-NAC conjugate (3) and its correspond PEG for 72 hours. Three samples were in each group. TNF-α in culture medium was measured using mouse TNF-α ELISA Kit.
The procedure for cell culture and drug treatment was the same as described in an earlier example. TNF-α secretion was measured using an ELISA Kit according to the manufacturer's instruction. In brief, 50 μL of supernatant from each sample was added in 96-well ELISA plates. Biotinylated antibody reagent was applied to each well and incubated the plate at room temperature for 2 hours. After washing the plate with PBS-Tween 20, diluted streptavidin-HRP was added, and the plate was incubated at room temperature for 30 min. After washing the plate, premixed TMB substrate solution was added. The plate was developed in the dark for 30 min, and read at 450 nm using a microplate reader. The concentration of TNF-α was calculated using murine rTNF-α as standard.

[2] = Inhibition of GSH depletion by PEG-NAC conjugates; format: cell-based; conditions: equimolar NAC 0.5 mM
microglial cells = assay: Toxicity of PEG-NAC conjugates to microglial cells; format: cell-based; conditions: 0.008-0.8 mM
Solubility in PBS/H2O = format: physicochemical
[3] = Dynamic light scattering size; format: physicochemical; conditions: PBS pH 7.4, 37° C.
Experimental: Dynamic light scattering (DLS) analyses were performed using a Malvern Instruments Zetasizer Nano ZEN3600 instrument (Westborough, Mass.) with reproducibility being verified by collection and comparison of sequential measurements. G4-PAMAM-O-GABA-NH-FITC and G4-PAMAM-O-GABA-NH-Alexa conjugate samples were prepared using PBS pH=7.4. DLS measurements were performed at a 90° scattering angle at 37° C. Z-average sizes of three sequential measurements were collected and analyzed.

[4] = Stability of fluorophore-dendrimer conjugates in PBS (HPLC); format: physicochemical; conditions: PBS (pH 7.4), after 72 hours
Excerpt: The FITC-labeled compound (G4-PAMAM-O-GABA-NH-FITC) was purified by dialysis (membrane cutoff 1000 Da) against DMSO in dark by replacing DMSO, to remove un-reacted compounds. Purity of G4-PAMAM-O-GABA-NH-FITC conjugate was confirmed by HPLC using fluorescent detector (λex=495 nm/λem=521 nm).
G4-PAMAM-O-GABA-NH2 dendrimer was reacted with the Alexa 488 carboxylic acid succinimidyl ester (Scheme-6). The N-succinimidyl activated ester of Alexa 488 couples to the terminal primary amines to yield amide-linked G4-PAMAM-O-GABA-Alexa conjugate. The formation of conjugate was confirmed by HPLC (FIG. 89) using florescent detector (λex=495 nm/λem=521 nm). […] The absence of any other peak in chromatogram after dialysis of product confirms the absence of free alexa. […] The dendrimer alexa conjugate was prepared for enhanced histological visualization of samples as confocal imaging causes quenching and also to match with the intensities of other alexa conjugated secondary antibodies.

[5] = Transmembrane transport and permeability, chorion; format: in vitro ADME, human
Excerpt: (§1) All human fetal membrane specimens were obtained at the time of cesarean section for obstetrical indications. The fetal membrane comprising chorioamniotic membrane (intact membranous tissue containing both amnion and chorion together) (n=7) and amnion (n=7) and chorion (n=7) were separately procured (size 6×9″). Each membrane was cut into 9 pieces for the 9 sets of diffusion chamber. The fresh membranes were collected immediately after the delivery, washed with PBS to remove the blood and stored in PBS until (˜1 h at 4° C.) it was mounted on the diffusion chamber (37±0.5° C.). Excess membranes were trimmed. The diffusion experiments were performed for 48 hours by mounting the membrane in the chamber to study the transport across the membranes. In all the experiments with chorioamniotic membrane the choriodecidua (maternal side) was placed facing the donor chamber and the amnionic epithelium (fetal side) was facing the receptor chamber. The chorion and amnion were mechanically separated by gently pulling the two membranes apart. For the chorion, the side attached to amnion was placed facing the receptor chamber and for the amnion the side attached to the chorion was placed facing the donor chamber in the diffusion apparatus. For histological evaluation, the tissue samples were collected at 0.5, 1, 2, 3 and 4 hours for and were fixed in 10% formalin overnight. Further, some sections were analyzed by hematoxylin and eosin (H & E) staining. The membrane thickness was measured using the Mitutoyo Super Caliper by placing the respective membranes between the two glass slides and subtracting the thickness of the glass slides without the membrane.
(§2) Permeation experiments were carried out using a two-chamber (donor and receptor) side-by-side Permegear diffusion cell with a chamber volume of 3 mL and with a diameter of 13 mm and a diffusional area of 1.32 cm^2. The fetal membranes (chorion and amnion together, amnion and chorion) each (n=9) were mounted between two halves of the donor and receptor cell (9 sets), which were further clamped together and sealed tightly with the rubber packing at the end of each glass chamber. The receptor cell (volume 3 mL) was filled with sterile PBS (pH 7.4). The donor cell (volume 3 mL) was filled with solution of compounds whose permeability was evaluated. […] The system was maintained at 37° C. by using a circulating water bath and a jacket surrounding each cell. The donor and receiving medium was continuously stirred (600 rpm) with a magnetic bar to avoid stagnant aqueous diffusion layer effects. Aliquots (200 μL) were collected from the receptor cell every 30 min till first 6 hours and at predetermined intervals thereafter and replaced with equal volume of PBS to maintain sink conditions throughout the study. […] The concentration of compound in the receptor medium was determined using a Molecular Devices SpectroMax M2, UV visible and Fluorescent plate reader at ex 495/em 521. The cumulative amount of compound transported across the membrane in the receptor cell was determined using a calibration curve (a transport of 50% corresponds equilibrium achieved). All the experiments were conducted in dark room. All experiments were done in triplicate and the results are reported as mean±STDev.
(§3) [formula] […] The thickness of the chorioamnion, chorion and amnion was 0.22 mm, 0.16 mm and 0.05 mm respectively (n=7), as measured with the help of Mitutoyo Super Caliper. […]

[6] = Transmembrane transport and permeability, chorioamnion; format: in vitro ADME, human
Excerpt: as §1
Permeation experiments were carried out using a two-chamber (donor and receptor) side-by-side Permegear diffusion cell with a chamber volume of 3 mL and with a diameter of 13 mm and a diffusional area of 1.32 cm^2. The fetal membranes (chorion and amnion together, amnion and chorion) each (n=9) were mounted between two halves of the donor and receptor cell (9 sets), which were further clamped together and sealed tightly with the rubber packing at the end of each glass chamber. […] The donor cell (volume 3 mL) was filled with solution of compounds whose permeability was evaluated. […] The concentration of compound in the receptor medium was determined using a Molecular Devices SpectroMax M2, UV visible and Fluorescent plate reader at ex 495/em 521. The cumulative amount of compound transported across the membrane in the receptor cell was determined using a calibration curve (a transport of 50% corresponds equilibrium achieved). […]
as §3

[7] = Transmembrane transport and permeability, amnion; format: in vitro ADME, human
Excerpt: as §1, §2
[formula] To determine the permeability coefficient, P, a plot of −V/2A ln (1−2Ct/C0) against t was constructed and linear fitting was performed. The slope of the linear portion of the graph yields a permeability coefficient. The thickness of the chorioamnion, chorion and amnion was 0.22 mm, 0.16 mm and 0.05 mm respectively (n=7), as measured with the help of Mitutoyo Super Caliper. […] The FIGS. 93A-C and FIG. 94 show the plots used for calculation of the permeability and the correlation in all the cases ranged from 0.96 to 0.99.

[8] = system: neuroinflammation in newborn rabbit model of cerebral palsy; assay: In vivo efficacy in newborn rabbit model of cerebral palsy (maternal endotoxin)
Experimental: New Zealand White rabbits (CoVance Research Products Inc., Kalamazoo, Mich.) with timed pregnancies confirmed with breeders (having a history of delivering 7-11 kits per litter) underwent laparotomy under general anesthesia (2-3% isoflurane by mask) on gestational day 28 (E28, term pregnancy is 31-32 days). 1 mL of saline for the control group (n=6) or 1 mL of saline containing 20 μg/kg of LPS (Escherichia coli serotype O127: B8 from Sigma-Aldrich, St Louis, Mo.) for the endotoxin group (n=6), was equally divided and injected into the uterine wall using a 27 gauge needle between the fetuses taking care not to enter the amniotic sac. This ensured that all the kits were exposed to the same amount of endotoxin. 0.5% NaHCO3 was infused at end of surgery and additional dose NaHCO3 was given at 2 hour after surgery according blood gas.
The following animal groups were enrolled and used for this example: • Group 1: Pups exposed to 20μ/kg E. Coli LPS in utero treated with saline I.V. (200 ul), Observe for 5 days (N=5-7) • Group 2: Pups exposed to 20μ/kg E. Coli LPS in utero treated with NAC I.V. (200 ul), single dose 10 mg/kg. Observe for 5 days (N=5-7) • Group 3: Pups exposed to 20μ/kg E. Coli LPS in utero treated with NAC I.V. (200 ul), single dose 100 mg/kg. Observe for 5 days (N=5-7) • Group 4: Pups exposed to 20μ/kg E. Coli LPS in utero treated with G4-PAMAM-S—S-NAC I.V (200 ul), single dose 1 mg/kg (based on preliminary data). […]
All live postnatal day 1 (PND1) control and endotoxin kits from four consecutive litters in each group were tested to reduce the risk of selection bias. The rabbit kits were assessed and scored for behavioral testing, as described by Derrick et al. Briefly, the kits were videotaped and scored on a scale of 0 (worst) to 3 (best) by two blinded observers for (1) posture (ability to maintain prone posture), (2) righting reflex (ability to right itself from supine to prone position for 10 attempts), (3) activity and locomotion on a flat surface (assessed by grading the quality, intensity, and duration of spontaneous movement of the head and front and back legs), (4) ability to move in a straight line and in circles, (5) coordination of suck and swallow assessed by feeding the rabbit kits artificially with formula from a syringe with a dropper, and (6) ability to move head during feeding (scored from 0-3 in which 0 is no movement of head and 3 is forceful movement of head and body). The tone on passive flexion and extension was assessed using the scoring based on the Ashworth scale, as described by Derrick et al, in which 0 indicated no increase in tone and 4 indicated the limb was rigid in flexion or extension. […]
secondary to maternal endotoxin administration were treated with a single dose of either PBS, NAC 100mg/kg, D-NAC 1 mg/kg or 10mg/kg, or dendrimer alone on day 1of life (31 days post-conception). […] Animals were video-taped for 10 minutes and were scored by two observers in a blinded manner. Scores were based on the maximum number of steps taken without falls (scored from 0-4) and number of hops without falls (scored from 0-4) in one minute of continuous activity. […]

6 Arm-PEG-S—S-NAC Conjugate [6-arm-PEG-S—S-NAC]
NAC released [1]: 74%
inhibition of TNF-α production (BV-2 cells): 70%
inhibition of GSH depletion versus free NAC [2]: more efficient
toxicity to the microglial cells (microglial cells): nontoxic

8 Arm-PEG-S—S-NAC Conjugate [8-arm-PEG-S—S-NAC]
NAC released [1]: 74%
inhibition of TNF-α production (BV-2 cells): 70%
inhibition of GSH depletion versus free NAC [2]: more efficient
toxicity to the microglial cells (microglial cells): nontoxic

CC(=O)N[C@@H](CCC(=O)N[C@@H](CS)C(=O)NCC(=O)O)C(=O)O [GS-S-NAC, N-Acetyl-glutathione] (Ac-[γGlu]-Cys-Gly-OH)
Solubility in PBS/H2O (Solubility in PBS/H2O): Soluble

G4-PAMAM-O-GABA-NH-Alexa-488
size (DLS) [3]: 5.6 nm
stability of the conjugate [4]: alexa was not released from the conjugate

G4-PAMAM-O-GABA-NH-FITC [D-FITC]
size (DLS) [3]: 5.4 nm
stability of the conjugate [4]: FITC was not released from the conjugate
Permeability coefficient, Chorion ([5]; 0.6 mg/mL): 2.94×10^−8 cm^2/s
Permeability coefficient, Chorion ([5]; 3 mg/mL): 2.94×10^−8 cm^2/s
transport across chorion ([5]; in 5 hours): ≤ 3%
transport across chorion ([5]; in 20 hours, 0.6 mg/mL, listed as G4-PAMAM dendrimer): 10% and ~10.5%
Permeability coefficient, Chorioamnion ([6]; 0.6 mg/mL): 7.5×10^−8 cm^2/s
Permeability coefficient, Chorioamnion ([6]; 3 mg/mL): 5.8×10^−8 cm^2/s
transport across chorioamnion ([6]; in 5 hours): ≤ 3%
Permeability coefficient, Amnion ([7]; 0.6 mg/mL): 1.86×10^−8 cm^2/s
Permeability coefficient, Amnion ([7]; 3 mg/mL): 2.08×10^−7 cm^2/s
transport across amnion ([7]; in 5 hours): ≤ 3%
transport across amnion ([7]; in 20 hours, 0.6 mg/mL): 22%

PAMAM-O-GABA-NH—CO-Ethyl-S—S-NAC [Dendrimer-NAC]
suppression of NF-κB ([8]; 1 mg/kg single dose on PND-1, hippocampus PND 5): as effective as 100 mg/kg of NAC alone
suppression of IL-6 relative to free drug ([8]; hippocampus): 10-100 times
suppression of TNF-alpha mRNA expression relative to free drug ([8]; hippocampus, 5 days of age): 10-100 times
effect on myelination compared to the drug alone ([8]; rabbit, in vivo): increased myelination
efficacy relative to free NAC ([8]; single i.v. administration): ≤ 100 times
